US20160303255, “COMPOSITIONS AND METHODS FOR TREATMENT OF MUSCULAR DYSTROPHY” (CONSIGLIO NAZIONALE DELLE RICHERCHE, published 2016)

Target: JZif1 (artificial (human Zif268/EGR1 derived), UniProt P18146 SEQ:1-543)
Experiment: cell_activity; luciferase induction in HeLa, pXP-Luc (about 318 bp human utrophin promoter A); also active in C2C7 (FIG. 8)
Conditions: tags: none
Protocol: To investigate the ability of JZif1, JZif2, Vp16-CJ7-UtroUp, Vp16-Bagly and Vp16-Jazz to upregulate (i.e., increase) expression from the utrophin promoter “A”, their ability to drive expression of a luciferase reporter gene placed downstream of a utrophin promoter “A” fragment was tested.
To test the ability of these artificial transcription factors to increase expression from the utrophin promoter “A” in human cells, HeLa cells were co-transfected with a plasmid carrying JZif1, JZif2, Vp16-CJ7-UtroUp, Vp16-Bagly or Vp16-Jazz under control of the cytomegalovirus (CMV) promoter together with the luciferase reporter construct plasmid pXP-Luc (pXP). JZif1, JZif2, Vp16-CJ7-UtroUp, Vp16-Bagly and Vp16-Jazz were each able to increase luciferase expression relative to controls (FIG. 7). […] By comparison, no increase in luciferase expression was detected when the pXP plasmid was co-transfected with a plasmid carrying the zinc finger domain of Jazz without a transcriptional activation domain, with a plasmid carrying the genomically-encoded human transcription factor Zif268's transcription activation domain without its zinc finger motifs, or with a plasmid carrying the transcriptional activation domain of Vp16 without a zinc finger DNA binding domain, which served as controls (FIG. 7). […]

Sequence of JZif1 (P18146 other isoform, or with tags, fused parts or gaps): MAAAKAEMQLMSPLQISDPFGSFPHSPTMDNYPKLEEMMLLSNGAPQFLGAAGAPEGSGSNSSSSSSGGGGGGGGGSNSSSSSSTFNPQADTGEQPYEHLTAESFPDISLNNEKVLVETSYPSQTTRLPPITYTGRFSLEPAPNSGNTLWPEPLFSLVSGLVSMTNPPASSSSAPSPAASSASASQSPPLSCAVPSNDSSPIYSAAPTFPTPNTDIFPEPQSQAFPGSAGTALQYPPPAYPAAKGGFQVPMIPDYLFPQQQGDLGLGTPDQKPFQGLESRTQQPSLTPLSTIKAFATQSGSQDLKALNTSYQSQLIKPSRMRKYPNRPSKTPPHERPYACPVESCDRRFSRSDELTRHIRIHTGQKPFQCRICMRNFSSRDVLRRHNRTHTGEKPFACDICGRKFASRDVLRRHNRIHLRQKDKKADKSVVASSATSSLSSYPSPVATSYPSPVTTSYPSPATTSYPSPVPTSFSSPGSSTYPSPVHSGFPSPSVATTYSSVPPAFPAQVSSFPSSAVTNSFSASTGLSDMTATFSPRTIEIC

B1: Jazz/JZif1 target in human utrophin promoter A (dsDNA)
DNA 1: GCTGCTGCG
DNA 2: CGCAGCAGC
Which activity does the source give for B1 here?
The activity was greater than 20 fold.
